B1: domain-exchanged heterodimeric bispecific antibody 1, BsAb1 (anti-CD3× anti-EGFR CH3-KiH) (bispecific antibody, human IgG1, kappa)
heavy 1: QVQLVQSGAEVKKPGASVKVSCKASGYTFTSHWMHWVRQAPGQGLEWIGEFNPSNGRTNYNEKFKSKATMTVDTSTNTAYMELSSLRSEDTAVYYCASRDYDYDGRYFDYWGQGTLVTVSSASTKGEPQVYTLPPSRDELTKNQVSLYCLVKGFYPSDIAVEWESNGQPENNYKTTPPVLDSDGSFFLYSKLTVDKSRWQQGNVFSCSVMHEALHNHYTQKSLSLSKSCDKTHTCPPCPAPELLGGPSVFLFPPKPKDTLMISRTPEVTCVVVDVSHEDPEVKFNWYVDGVEVHNAKTKPREEQYNSTYRVVSVLTVLHQDWLNGKEYKCKVSNKALPAPIEKTISKAKGQPFRPEVHLLPPSREEMTKNQVSLTCLARGFYPKDIAVEWESNGQPENNYKTTPSRQEPSQGTTTFAVTSKLTVDKSRWQQGNVFSCSVMHEALHNHYTQKTISLSPGK
heavy 2: QVQLVQSGGGVVQPGRSLRLSCKASGYTFTRYTMHWVRQAPGKGLEWIGYINPSRGYTNYNQKVKDRFTISRDNSKNTAFLQMDSLRPEDTGVYFCARYYDDHYCLDYWGQGTPVTVSSASTKGPSVFPLAPSSKSTSGGTAALGCLVKDYFPEPVTVSWNSGALTSGVHTFPAVLQSSGLYSLSSVVTVPSSSLGTQTYICNVNHKPSNTKVDKKVEPKSCDKTHTCPPCPAPELLGGPSVFLFPPKPKDTLMISRTPEVTCVVVDVSHEDPEVKFNWYVDGVEVHNAKTKPREEQYNSTYRVVSVLTVLHQDWLNGKEYKCKVSNKALPAPIEKTISKAKGQPREPQVYTLPPPSEELALNELVTLTCLVKGFYPSDIAVEWLQGSQELPREKYLTWAPVLDSDGSFFLYSILRVAAEDWKKGDTFSCSVMHEALHNHYTQKSLDRSPGK
light 1: DIQMTQSPSSLSASVGDRVTITCSASSSVTYMYWYQQKPGKAPKLLIYDTSNLASGVPSRFSGSGSGTDYTFTISSLQPEDIATYYCQQWSSHIFTFGQGTKVEIKRTVAEPQVYTLPPSRDELTKNQVSLTCLVKGFYPSDIAVEWESNGQPENNYKTTPPVLDSDGSFFLTSKLTVDKSRWQQGNVFSCSVMHEALHNHYTQKSLSLSGEC
light 2: DIQMTQSPSSLSASVGDRVTITCSASSSVSYMNWYQQTPGKAPKRWIYDTSKLASGVPSRFSGSGSGTDYTFTISSLQPEDIATYYCQQWSSNPFTFGQGTKLQITRTVAAPSVFIFPPSDEQLKSGTASVVCLLNNFYPREAKVQWKVDNALQSGNSQESVTEQDSKDSTYSLSSTLTLSKADYEKHKVYACEVTHQGLSSPVTKSFNRGEC
notes: hu425 (Matuzumab) Fv in the CH3 domain-exchanged Fab arm, OKT3 Fv in the native Fab arm; SEED AG/GA Fc; also called domain-exchanged heterodimeric antibody 1; domain-exchanged bispecific antibody 1
B2: Effector Negative (EN) isotype domain-exchanged bispecific antibody BsAb2 (anti-CD16× anti-EGFR CH3-KiH), BsAb2 EN (bispecific antibody, human IgG1, kappa)
heavy 1: QVQLVQSGAEVKKPGASVKVSCKASGYTFTSHWMHWVRQAPGQGLEWIGEFNPSNGRTNYNEKFKSKATMTVDTSTNTAYMELSSLRSEDTAVYYCASRDYDYDGRYFDYWGQGTLVTVSSASTKGEPQVYTLPPSRDELTKNQVSLYCLVKGFYPSDIAVEWESNGQPENNYKTTPPVLDSDGSFFLYSKLTVDKSRWQQGNVFSCSVMHEALHNHYTQKSLSLSKSCDKTHTCPPCPAPPVAGPSVFLFPPKPKDTLMISRTPEVTCVVVDVSHEDPEVQFNWYVDGVEVHNAKTKPREEQAQSTFRVVSVLTVVHQDWLNGKEYKCKVSNKGLPAPIEKTISKTKGQPFRPEVHLLPPSREEMTKNQVSLTCLARGFYPKDIAVEWESNGQPENNYKTTPSRQEPSQGTTTFAVTSKLTVDKSRWQQGNVFSCSVMHEALHNHYTQKTISLSPGK
heavy 2: not shown
light 1: B1 light 1
light 2: not shown
notes: also called EN BsAb2; effector negative IgG2 variant of BsAb2
B3: domain-exchanged bispecific antibody 2, BsAb2 (anti-CD16× anti-EGFR CH3-KiH) (bispecific antibody, human IgG1, kappa)
heavy 1: B1 heavy 1
heavy 2: not shown
light 1: B1 light 1
light 2: not shown
notes: hu425 Fv in the domain-exchanged Fab arm, murine 3G8 (anti-CD16) Fv in the native Fab arm; also called effector positive BsAb2 variant
B4: One-armed Effector Negative (EN) domain-exchanged anti-EGFR antibody (antibody)
heavy: B2 heavy 1
chain: EPKSSDKTHTCPPCPAPPVAGPSVFLFPPKPKDTLMISRTPEVTCVVVDVSHEDPEVQFNWYVDGVEVHNAKTKPREEQAQSTFRVVSVLTVVHQDWLNGKEYKCKVSNKGLPAPIEKTISKTKGQPREPQVYTLPPPSEELALNELVTLTCLVKGFYPSDIAVEWLQGSQELPREKYLTWAPVLDSDGSFFLYSILRVAAEDWKKGDTFSCSVMHEALHNHYTQKSLDRSPGK
light: B1 light 1
notes: One Fab arm only; effector negative Fc (modified IgG2 CH2 F296A, N297Q); also called one-armed domain-exchanged EN anti-EGFR antibody; one-armed effector negative anti-EGFR antibody

What was measured:
[1] = biological target: T1, EGFR (on EGFR-expressing A431 cells) (UniProt P00533 25-1210, limits assumed); experiment: flow cytometry on A431 cells
T1 construct: whole, on cells; A431 is a human cell line; also called EGFR-positive cells; EGFR-overexpressing A431 cells

[2] = biological target: T1, EGFR (on EGFR-expressing A431 cells); experiment: cell-based or functional assay
[3] = biological target: CD3 (on activated primary T cells) (UniProt P07766 23-207); experiment: cell-based or functional assay
CD16a receptor (FcγIIIa) [4] = biological target: T2, CD16a receptor (FcγIIIa) (UniProt P08637 17-254, limits assumed); experiment: cell-based or functional assay
T2 sequence (P08637 17-254 limits assumed): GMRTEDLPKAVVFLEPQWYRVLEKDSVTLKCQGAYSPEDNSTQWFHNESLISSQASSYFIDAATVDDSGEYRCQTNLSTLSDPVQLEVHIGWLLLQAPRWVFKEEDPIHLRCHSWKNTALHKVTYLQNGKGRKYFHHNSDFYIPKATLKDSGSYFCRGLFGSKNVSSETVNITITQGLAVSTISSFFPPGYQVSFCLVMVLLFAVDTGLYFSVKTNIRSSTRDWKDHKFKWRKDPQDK

CD16a receptor (FcγIIIa) [5] = biological target: T2, CD16a receptor (FcγIIIa); experiment: CD16a HTRF cellular binding assay, competition with labeled human IgG
Protocol: (§1) FIG. 14: Binding of antibodies to CD16a receptor. Binding was measured using CD16a HTRF cellular binding assay (CisBio). Measurement was performed in duplicates.

CD16a receptor (FcγIIIa) [6] = biological target: T2, CD16a receptor (FcγIIIa); experiment: CD16a HTRF cellular binding assay (CisBio), competition with labeled human IgG
Protocol: as §1

Binder	EC50 [1]	EC50 of redirected lysis of A431 cells by activated T cells (LDH release) [2]	EC50 of redirected lysis of A431 cells by activated T cells (LDH release) [3]	EC50 of lysis of A431 cells by redirected NK cells (LDH release) [2]	lysis of A431 cells by redirected NK cells (LDH release) [2]	EC50 of lysis of A431 cells by redirected NK cells (LDH release) (CD16a receptor (FcγIIIa) [4])	lysis of A431 cells by redirected NK cells (LDH release) (CD16a receptor (FcγIIIa) [4])	IC50 (CD16a receptor (FcγIIIa) [5])	binding result (CD16a receptor (FcγIIIa) [6])
B1	~7000 pM	100 to 300 pM	100 to 300 pM						
B2				37 pM	≤ 50%	37 pM	≤ 50%	~3600 pM	
B3				10 pM	≤ 50%	10 pM	≤ 50%	~300 pM	
B4									no binding
